Ends that are not written are not given here.
Biological target: LptDE complex from Shigella flexneri with a hexahistidine tag on LptE (Shigella flexneri, UniProt Q83SQ0;Q0T6Q1)
Assay: native MS

LptDE complex from Shigella flexneri with a hexahistidine tag on LptE, sequence (Q83SQ0 25-784, chain 1 of 2): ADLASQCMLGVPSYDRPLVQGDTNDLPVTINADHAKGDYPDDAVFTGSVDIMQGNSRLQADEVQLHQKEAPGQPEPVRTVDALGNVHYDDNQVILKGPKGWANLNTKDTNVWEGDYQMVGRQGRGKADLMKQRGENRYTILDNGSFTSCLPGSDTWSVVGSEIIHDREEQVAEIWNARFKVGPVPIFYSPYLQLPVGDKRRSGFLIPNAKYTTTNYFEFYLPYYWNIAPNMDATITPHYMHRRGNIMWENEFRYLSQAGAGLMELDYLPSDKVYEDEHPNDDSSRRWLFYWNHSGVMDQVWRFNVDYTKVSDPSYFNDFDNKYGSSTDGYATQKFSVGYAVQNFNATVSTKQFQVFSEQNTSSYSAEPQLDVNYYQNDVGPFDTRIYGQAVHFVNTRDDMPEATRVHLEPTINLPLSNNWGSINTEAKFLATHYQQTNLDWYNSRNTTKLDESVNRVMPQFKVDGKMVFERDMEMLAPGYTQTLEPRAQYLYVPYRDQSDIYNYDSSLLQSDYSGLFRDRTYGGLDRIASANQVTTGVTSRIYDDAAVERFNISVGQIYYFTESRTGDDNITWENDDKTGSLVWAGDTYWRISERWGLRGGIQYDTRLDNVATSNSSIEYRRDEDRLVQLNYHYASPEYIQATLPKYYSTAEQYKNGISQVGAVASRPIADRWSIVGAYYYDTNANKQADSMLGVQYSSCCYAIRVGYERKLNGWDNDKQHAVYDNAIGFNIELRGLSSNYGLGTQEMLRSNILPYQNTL
LptDE complex from Shigella flexneri with a hexahistidine tag on LptE, sequence (Q0T6Q1 19-193, chain 2 of 2): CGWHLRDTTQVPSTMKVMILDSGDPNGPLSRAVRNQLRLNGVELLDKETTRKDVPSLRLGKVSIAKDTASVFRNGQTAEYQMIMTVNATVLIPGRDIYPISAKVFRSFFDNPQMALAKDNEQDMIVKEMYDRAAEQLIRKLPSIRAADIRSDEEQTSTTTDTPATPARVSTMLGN

Row | Binder | stoichiometry N
1 | CGLKGPLYFPPADKNAPPPTKPVETQTQSTVPDKNDRATGDGPSQVNY (natural protein, also: three acyl chains (R1, R2, R3) on N-terminal Cys) [endogenous Escherichia coli lipoprotein YifL] | 1
2 | endogenous E. coli lipoprotein YedD (natural protein) CAEVENYNNVVKTPAPDWLAGYWQTKGPQRALVSPEAIGSLIVTKEGDTLDCRQWQRVIAVPGKLTLMSDDLTNVTVKRELYEVERDGNTIEYDGMTMERVDRPTAECAAALDKAPLPTPLP | 1

From article doi:10.1101/2022.12.25.521893 (bioRxiv, 2022)
